T1: cynomolgus monkey Siglec-15-his protein (Acrobiosystems, Cat #: SG5-C52H6) (cynomolgus monkey, UniProt Q6ZMC9 20-263 (human entry))
T1 construct: Bought protein; also called cynomolgus monkey Siglec-15 protein; not shown: his tag
T1 chain: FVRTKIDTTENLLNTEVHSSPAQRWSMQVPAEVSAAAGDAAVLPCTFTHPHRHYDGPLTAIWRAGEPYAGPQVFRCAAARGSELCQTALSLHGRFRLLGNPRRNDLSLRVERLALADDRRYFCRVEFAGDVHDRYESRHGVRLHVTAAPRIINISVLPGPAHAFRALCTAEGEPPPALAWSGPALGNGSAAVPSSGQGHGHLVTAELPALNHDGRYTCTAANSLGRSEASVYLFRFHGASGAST

T2: human Siglec-15 ECD-his protein (Acrobiosystems, Cat #: SG5-H52H3) (human, UniProt Q6ZMC9 20-263)
T2 construct: Bought protein; only its extracellular domain stood in the assay; also called human Siglec-15 protein; recombinant human Siglec-15 protein; not shown: his tag
T2 sequence: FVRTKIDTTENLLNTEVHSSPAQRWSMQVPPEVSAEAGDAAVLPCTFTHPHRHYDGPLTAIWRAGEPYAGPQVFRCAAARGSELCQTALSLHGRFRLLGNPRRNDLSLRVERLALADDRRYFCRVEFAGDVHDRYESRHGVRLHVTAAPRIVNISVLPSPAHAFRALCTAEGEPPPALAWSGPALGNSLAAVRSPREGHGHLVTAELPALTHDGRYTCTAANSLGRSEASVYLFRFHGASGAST

T3: human Siglec-15 on CHO-K1/human Siglec-15 cells (KYinno, Beijing) (human, UniProt Q6ZMC9 20-328)
T3 sequence: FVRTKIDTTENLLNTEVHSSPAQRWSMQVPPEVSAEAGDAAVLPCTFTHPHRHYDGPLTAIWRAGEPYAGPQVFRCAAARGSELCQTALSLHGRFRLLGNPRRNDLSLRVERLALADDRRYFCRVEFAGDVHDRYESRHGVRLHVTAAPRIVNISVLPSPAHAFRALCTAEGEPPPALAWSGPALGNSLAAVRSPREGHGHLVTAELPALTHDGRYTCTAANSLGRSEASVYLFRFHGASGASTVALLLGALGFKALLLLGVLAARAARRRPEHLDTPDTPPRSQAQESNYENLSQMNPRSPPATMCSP


How the values were obtained:
[1] = target: T1, cynomolgus monkey Siglec-15-his protein …; assay: ELISA, coated cynomolgus monkey Siglec-15-his
Protocol: (§1) 1 g/mL cynomolgus monkey Siglec-15-his protein (Acrobiosystems, Cat #: SG5-C52H6) dissolved in PBS was added to an ELISA plate at 100 μL/well for coating and the plate was incubated overnight at 4° C. The ELISA plate was then blocked with PBST (PBS+0.05% Tween 20) containing 2% BSA at 200 μL/well and incubated at 37° C. for 1 h. The ELISA plate was washed 4 times with PBST. The anti-Siglec-15 antibody diluted in a gradient (5-fold dilution, starting concentration: 6.67 nM) was added to the ELISA plate at 100 µL/well and the plate was incubated at 37° C. for 1 h. The ELISA plate was washed 4 times with PBST. The goat anti-human IgG (H+L)-HRP (1:5000, Jackson, Cat #: 109-035-088) was added at 100 μL/well and the plate was incubated at 37° C. for 1 h. The ELISA plate was washed 4 times with PBST. The TMB substrate (Biopanda, Cat #: TMB-S-003) was added at 100 μL/well, and the plate was incubated at room temperature for 5 min, and then the stop buffer (Solarbio, Cat #: C1058) was added at 100 μL/well to stop the reaction.

[2] = target: T2, human Siglec-15 ECD-his protein …; assay: ELISA, coated human Siglec-15 ECD-his
Protocol: as §1, with “human Siglec-15 ECD-his” for “cynomolgus monkey Siglec-15-his”, “SG5-H52H3)” for “SG5-C52H6)”, “μL/well” for “µL/well”

[3] = target: T4, mouse Siglec-15-his protein (Acrobiosystems, Cat #: SG5-M52H7) (mouse); assay: ELISA, coated mouse Siglec-15-his
T4 construct: Bought protein; also called mouse Siglec-15 protein
Protocol: as §1, with “[…] mouse” for “g/mL cynomolgus monkey”, “#: SG5-M52H7)” for “#: SG5-C52H6)”, “100 μL/well” for “100 µL/well”, “Jackson, Cat:” for “Jackson, Cat #:”, “(Biopanda, Cat:” for “(Biopanda, Cat #:”

[4] = target: T2, human Siglec-15 ECD-his protein …; assay: BLI (Octet RED96), antibody on AHC sensor, Siglec-15 ECD-his as analyte
Protocol: Recombinant Human Siglec-15 Protein Affinity was determined using an Octet RED96 instrument (ForteBio) and an anti-human IgG Fc capture sensor (AHC biosensor, ForteBio, Cat #: 18-5060) according to the detailed procedures and methods provided by the manufacturer. Specifically, candidate antibodies were each diluted to a final concentration of 6 µg/mL and directly immobilized on AHC biosensors for kinetic measurements. The antigenic protein Siglec-15 ECD-his protein (Acrobiosystems, Cat #: SG5-H52H3) was diluted with 10× Kinetics buffer to 3 concentrations of 60 nM, 30 nM, and 15 nM separately and injected as the analyte for 120 s with a dissociation time of 400 s and then subjected to regeneration with 10 mM glycine HCl (pH 1.5) for 15 s. The association rate (kon) and dissociation rate (kdis) were calculated using a simple one-to-one Languir binding model (Octet Red96 data analysis software). The equilibrium dissociation constant (kD) was calculated as the ratio of kdis/kon.

[5] = target: T3, human Siglec-15 on CHO-K1/human …; assay: flow cytometry on CHO-K1/human Siglec-15 cells
Protocol: CHO-K1/human Siglec-15 cells (KYinno, Beijing) were adjusted to a density of 1×10⁶/mL with PBS, and the cell suspension was added to a 96-well V-bottom plate at 100 μL/well. The 96-well V-bottom plate was centrifuged at 1000 rpm for 5 min and washed once with PBS+2% FBS. The cells were resuspended in […] of antibody diluted in a gradient (5-fold dilution, starting concentration: 500 nM) and incubated at 4° C. for 1 h, and PR300066 and hIgG1 were used as positive control and negative control, respectively. After 1 h, the cells were washed twice with PBS+2% FBS. The cells were incubated with 100 μL of Alexa Fluor 488 goat anti-human IgG (Jackson, Cat #: 109-545-098) at 4° C. for 1 h in the dark and then washed twice with PBS+2% FBS. The cells were then resuspended in 200 μL of PBS+2% FBS. The fluorescence intensity of the cells was analyzed using a BD FACSCanto™ II flow cytometer.

EC50 [1] [nM]	EC50 [2] [nM]	EC50 [3] [nM]	Kd [4] [nM]	koff [4] [s⁻¹]	kon [4] [M⁻¹ s⁻¹]	EC50 [5] [nM]	Maximum (MFI) [5] [MFI]	Binder
0.071	0.02	0.104	–	–	–	–	–	PR300526 (antibody, human IgG1, kappa, V domains shown) VH: QVQLVQSGAEVKKPGASVKVSCKASGYTFTDYYMHWVRQAPGQGLEWMGWINPNSDGTNYAQRFQGRVTMTRDTSISTAYMELSRLRSDDTAVYYCARGRLLRFFDWLDVMDAWGQGTSVTVSS VL: not shown
~0.011	0.01	0.013	0.00305	3.25e-06	1.07e+06	3.45	24000	PR300659 (antibody, human IgG1, kappa, V domains shown) VH: QVQLVESGGGVVQPGRSLRLSCAASGFIFSSYDIYWVRQAPGKGLEWVAVIWHDGSNKYYADSVKGRFTISRDNSKNTVYLQMNSLRAEDTAVYYCARDTHSYGSRIYYDYNYGMDVWGQGTTVTVSS VL: DIQMTQSPSSLSASVGDRVSITCRASQSISSYLNWYQQKPGKAPKLLIYAASSLQSGVPSRFSGSGSGADFTLTISSLQPEDFATYYCQQTYSPPFTFGPGTKVDIKR
0.025	0.018	0.079	0.0858	3.09e-05	361000	1.49	16600	PR300670 (antibody, human IgG1, kappa, V domains shown) VH: QVQLVESGGGVVQPGRSLRLSCVASGFTFSTYGIHWVRQAPGKGLDWVSVIWYDGSHKYYADSVQDRFTISRDNSKNTLYLQMNSLRAEDTAVYYCAREGMITMVRGVIIDYQYHGMDVWGQGTTVTVSS VL: DIQMTQSPSTLSASVGDRVTITCRASQSIGRRLAWYQQKPGKAPKLLIYKASSLESGVPSRFSGSGSGTEFTLTISSPQPDDFATYYCQQYHSYSYTFGQGTKLEIKR

From patent publication US20260070974A1 (NONA BIOSCIENCES SUZHOU, published 2026)
